From the supplement of paper PMC12042874
± gives the uncertainty stated by the source.

Test: amyloid nucleation score (Sup35N fusion, yeast selection) (log enrichment); library NNK3; higher = more nucleation; inactive = no reads after selection
Procedure, shortened: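 Three technical output replicates were used for random libraries. Psi-negative yeast expressing peptides of 20 random codons fused to Sup35N were induced with 100 μM copper sulfate for 24 hours and grown 7 days at 30°C on medium lacking adenine and uracil, and input and output plasmid inserts were Illumina-sequenced, excluding sequences with under 100 input reads. The nucleation score is the DiMSum log enrichment of output over input reads, centred on the mode score of non-aggregating sequences.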

Substance	amyloid nucleation score
CECTRVCRVCPSVSMHAIK	inactive
CEFTYGKDAKVRTEAYHAYW	inactive
CEGCTYMCSCI	0.85 ± 0.1
CEGVAHSDMFLRLLLTETGL	-0.792 ± 1.8
CEIRSCGENFNATSRGRPGI	inactive
CEKGLFLFSFSKFTSYPPGM	-0.435 ± 0.55
CEPMRYNCFCGFCIYDVRV	2.36 ± 0.06
CFCQVSKANWLNR	inactive
CFLMCVAVVCRIRNYYWCTI	inactive
CFNSR	inactive
CFRVYVPNSKSDDL	inactive
CFSNLGCTGWRT	-0.684 ± 1.2
CFTDSFINTLCVFNIDPGFP	2.46 ± 0.051
CFVGVTFDLSSDLCLFCNKV	inactive
CFVLFLNLLVATGPIWINSP	0.477 ± 0.2
CFYAISDRRSRFSIIFTYNG	inactive
CGISSILIAFCCNHYIVQWM	1.92 ± 0.054
CGLPTVKTYRMEMSYNRLDW	inactive
CGTCLRMVKVTRSDV	inactive
CGVCFYHIAWGSVHDTS	0.93 ± 0.16
CHCIYNQCVGFSVCGCRGFG	2.35 ± 0.058
CHGCMRLLSDGLKDEWYMIF	inactive
CHNVLWRLKRFHASRCTGDM	inactive

Substance	amyloid nucleation score
CIAPILFPALAHQLLLAKGH	inactive
CILYRFPPATKSHRITGIYK	inactive
CIMRMTFTMITYCNSLSLGS	inactive
CIRGVQNTGCGAQACYPVCR	inactive
CIRPVLSHSYEIKNTGLGRT	inactive
CKGNINTYGYLYLDVYFYIM	1.94 ± 0.073
CKRNKDGKWRRKTWRLVQFY	-1 ± 1.2
CLFRDDRNRVDI	inactive
CLLEHFK	inactive
CLNYSETCSPI	inactive
CLSLFTSGIV	inactive
CLSYITLPRCLCAHRFKLG	inactive
CLTGRLLKSSVIRWRKYMNV	inactive
CLTTVRLRNYFF	inactive
CLTVHTVNIIGMNFIVNVAL	2.72 ± 0.085
CLVKHRPHSEVACGADNVCR	inactive
CLVYLV	inactive
CMFCLPMGNSIRGLGNRNSV	1.87 ± 0.074
CMGACLAGDTCKWIRQHLSG	inactive
CMLCTQLHNNRRKKSKMCWS	inactive
CMMPLNATRYVYLPNAAHSL	inactive
CMQSEHTTSAYYRLDCS	-0.276 ± 0.41
CMTFLNIYSNGQLSGTYCLF	1.59 ± 0.083

Substance	amyloid nucleation score
CNCVYSSANFCDIMYTNRLG	1.14 ± 0.085
CNNNLGVVFPRFWSIFAKGC	inactive
CNYNTTM	inactive
CPCDTGVKQVTILEQGWVVM	0.963 ± 0.14
CPPGWRCQHKLDLTLGPDRW	inactive
CPSWCYFNRGDV	1.39 ± 0.091
CPYVKSHSICDDSSGLPRLK	inactive
CRCNWENCCMDQL	inactive
CRIPALTTTMLITNG	inactive
CRKEYIFYLFHIIMSQARNI	inactive
CRLPLQSL	inactive
CRNCR	inactive
CRPRLVLSFGQIVY	inactive
CRRRYSDLSIYLLVSNDVIV	inactive
CRSWVPMGGDLHRGWSLANK	inactive
CSCQRPKAFQVQWNGG	0.789 ± 0.14
CSCWTISLFCLWQTLRFPPI	0.438 ± 0.23
CSDATIGQNSGSHDQLNRSD	inactive
CSDCDWSDFFVDVSFWIMVI	inactive
CSDNILEHYTSFYWLMSVHR	inactive
CSIILWALPEFNLLDFLPAD	inactive
CSISNVFSVVNVSSYSWGLY	0.373 ± 0.39
CSLCYETGSICVVSRGEDGL	inactive

Substance	amyloid nucleation score
CSLNLCVKDTHIHEN	inactive
CSLVLSESPFGNI	inactive
CSMPFTSSEKLGKCGNDAPF	inactive
CSRLPVHRFIP	inactive
CSSQTIRGTDKSHDVLAKLL	inactive
CSSSRVWVHKHYGTYRHFIL	inactive
CTAILAVMSIGNFFNRLDLN	inactive
CTCFRGSTFRNAYN	inactive
CTHLLFCPMGRVSTCSLKME	inactive
CTHVLRNWGIKNGP	inactive
CTRSVSILESLRDSNTSLSQ	inactive
CTTRMCNGLWNARLRGTTSP	inactive
CTYIVHATVEPVYDNDLLKW	inactive
CTYLAVVTMMDEELWGIRWN	inactive
CVDVSGLFGNIMEVILVMSW	inactive
CVLSSRF	inactive
CVMGIRIHPFVVYNGQGGTS	inactive
CVMLVAVQGR	inactive
CVNMLRKTVIYFLHFPAYYR	inactive
CVNTHRY	inactive
CVQRVREYVGT	inactive
CVRYSRSGWVCDTGRLKDPC	inactive
CVSIGVVMCFCKSRFAITFV	inactive

Substance	amyloid nucleation score
CVSRICVWPRYETTGFYAST	inactive
CVTFFVISTHPHSCSLSN	2.42 ± 0.083
CVTGVSLPGNRISG	inactive
CVTRDDLCYW	inactive
CVYNRLNMF	-0.296 ± 0.28
CWADSDSVSKKSRIA	inactive
CWAYF	inactive
CWFLVTMGYAGCFFSPVTQL	inactive
CWIAMCGVVFNDLRMS	2.81 ± 0.071
CWLPFVCCAQCLNRIDVVSR	2.32 ± 0.066
CWNDSLLCYMSSTMGNVQTT	inactive
CWVRIVAICMGFW	inactive
CYFLQ	inactive
CYGKLDGMTNDEEGTPVFAN	inactive
CYGLSRCTRAEAMCPKG	inactive
CYIYLSMQYGEHANDIICLW	inactive
CYKMNVMT	inactive
CYQVWPARLSILHARLLGGR	inactive
CYRISSESWSTWWIYFWSCR	inactive
CYWKLYCGNEYYGVSFMGVL	inactive
CYYDEVFAFLSLMTFRIQNK	inactive
DALRL	inactive
DANWDTLIFLSSRMNAWRYK	1.86 ± 0.077

Substance	amyloid nucleation score
DCALAAGMK	inactive
DCCSYRSERA	inactive
DCFFRSVDLADSR	inactive
DCFSGIGCSRRKT	inactive
DCGKWNLWSQPLGTG	inactive
DCMNGLVCFFMMCRGSLIRD	inactive
DCPLNNVTSLSHP	inactive
DCSGG	inactive
DDCQFSDNRRFKSVPSYSQR	inactive
DDGSKCLLSSMMFVNLVTYC	inactive
DDYLPMISPFRCYSQFKYIS	inactive
DENVRLTL	inactive
DFDAC	0.021 ± 0.52
DFDLLSFIRSDVIPCVCSKG	inactive
DFELFSSALGSLSNGHSENV	inactive
DFEVR	inactive
DFFLRVMYMKWNAPL	inactive
DFGFWLVDVGWGPLLRYVAD	inactive
DFKDCDICTTPNDKVESGKV	inactive
DFLLATDQVGYKDLDLGTKV	inactive
DFLYRGMNGSGFPLCIYQRC	inactive
DFRRANGEYWLTAAPMLIHT	0.396 ± 0.28
DFRRTGLCIREWSSWRIMKL	inactive

Substance	amyloid nucleation score
DFSTDTHWKVWW	0.566 ± 0.43
DFVRSNNCYWCFAAFSPCFR	inactive
DFVTHWSVAMLMI	inactive
DFYFRVIVVGGHCVSDTSFL	inactive
DFYLDLITLDNRTTSSTSML	inactive
DGAEDCRS	-1.03 ± 2.5
DGCALSMPNYAGNQVVKQRG	inactive
DGDIVQCSSLCKVSGFLFTS	inactive
DGEASTRVSCGDDIFRKTSS	1.03 ± 0.16
DGLSLPPMMVNRVQTATQSR	inactive
DGMTKFRWSCVRWVCG	inactive
DHRNVRRLKVRLTECIE	inactive
DIQVFLTSSLQFIAEISVGG	inactive
DIRYLISSTRYLDVMEGFLV	inactive
DKALS	inactive
DKEDHLSVFWAV	inactive
DKRFELNRALLTVPWDQNRA	inactive
DKSLFKII	inactive
DKYFVAASWFRWVLVYMGWS	inactive
DLNIIRISAYLCLANCFPST	2.37 ± 0.054
DLNRYSWSRKRRLCCSHCRG	inactive
